Drawing on the supplement of paper PMC12042874, this text covers amyloid nucleation score for 142 substances.

± gives the uncertainty stated by the source.

A short description of the data set: amyloid nucleation score (Sup35N fusion, yeast selection) (log enrichment); library NNK2; higher = more nucleation; inactive = no reads after selection. A digest of the protocol:
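The nucleation score equals the log enrichment of output over input reads from DiMSum, centred on the mode score of non-aggregating sequences. It was computed only for sequences with 100 or more input reads. The reads came from Illumina sequencing of plasmid inserts from psi-negative yeast expressing Sup35N fused to peptides of 20 random codons, induced with 100 μM copper sulfate for 24 hours and grown 7 days at 30°C without adenine and uracil.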
Take TWGYGRDVCVRSERSGWYLS: the amyloid nucleation score turned out to be 0.859 ± 0.28.
In the case of TWKYDRMVGKIVGLALRVVT it was 0.643 ± 0.43; in that of TWLSCPTLNHLVTNMPWY, -0.759 ± 0.39.
In the case of TWLSLSLYPFSKSYSISAGF it was -0.321 ± 1.
With TWRIYLTQRAVTSKMYLRAS the figure was 4.74 ± 0.07.
The substance TWWIELVKLGEMVVK showed an amyloid nucleation score of 0.313 ± 0.65.
In the case of TYCNRLRNRLMFFLYSPTTS it was -0.587 ± 0.79; in that of TYDLGCDYPIVPYVNFLCM, 6.59 ± 0.072.
In the case of TYGVVK it was -0.047 ± 0.17; in that of TYIFSHTAGYNFG, “inactive”; in that of TYKAAICLGCS, 6.548 ± 0.033.
With TYKMKNMGICIYRYARLGDC the figure was 0.372 ± 0.74.
Consider TYLFYWSLGQRCMIF, for which the amyloid nucleation score entry is “inactive”.
With TYNKYK the figure was -1.08 ± 0.78; with TYQMWLDTE, -0.445 ± 0.39; with TYRIQRIFLPLYRWLVLLLS, -0.285 ± 0.76.
Turning to TYRLDSWITGSRLV, the amyloid nucleation score is -0.555 ± 0.76.
In the case of TYSGLKNARWEFWMKSFDYF it was -1.12 ± 0.5.
With TYSSNASGVTVFR the figure was -0.772 ± 0.63; with TYSVLRHFRRES, 0.589 ± 0.31; with TYTMGRHNFVMSLSFFSHSA, 4.861 ± 0.044.
In the case of TYYSLSLVAIMGAR it was 1.82 ± 0.2; in that of VANDLQPWLRAVHSCFWYSS, 0.896 ± 0.17; in that of VAVCMWTTNVCVI, 7.804 ± 0.042.
Regarding VAWTRCSLHWLQFVLCLSGE, the amyloid nucleation score was 5.92 ± 0.041.
With VAYVKACRTSGVHQLSTDHV the figure was 1.67 ± 0.34.
With VCFVICDSPSFYV the figure was 7.901 ± 0.044; with VCGQILDYWFVYT, 0.264 ± 0.23; with VCLCCYYIYYERFSNGFFLL, 5.02 ± 0.058.
With VCLMLS the figure was -0.573 ± 1.1; with VCSKHD, -0.78 ± 1.1.
Consider VCSTEV, for which the amyloid nucleation score was 0.32 ± 0.74.
In the case of VCTLRVSDNNLEKKSVLYMR it was 3.97 ± 0.047; in that of VCVFEARVFSKLFVY, “inactive”; in that of VCWLLGSGFWAS, “inactive”.
In the case of VDDFELMLYAMVVNGLELLD it was -0.19 ± 1.
With VDFIKIKRIGPER the figure was -0.709 ± 0.38.
With VDHQVFNHDHCGRIYVLCLG, the amyloid nucleation score is -0.322 ± 0.31.
In the case of VDICGTRGKRRYCSLRLFAW it was -0.594 ± 1.1; in that of VDIGENLEFCIVLSQ, -0.19 ± 0.55.
With VDILG the figure was -0.094 ± 1; with VDNCDLGIS, -0.861 ± 1.1.
With VDQRRVHLDERDY the figure was -0.371 ± 0.63.
Consider VDTHSILASCLRVTKGVTDK, for which the amyloid nucleation score was determined as 0.138 ± 1.1.
In the case of VDVVFTSSSTSLCSLSWSGV it was 4.79 ± 0.099; in that of VEARVHFPFWDLIEVSMYGY, -0.665 ± 0.49.
With VECIRSVLVFFVFWLRSIFA the figure was -1.38 ± 0.55.
In the case of VEFIVSWHGPAKRYPYATTL it was 0.629 ± 0.34; in that of VEGRYAPKRSYVTPGWDV, -0.05 ± 0.55.
For the substance VEGTIRKRFGVWKYVLAPWL, the amyloid nucleation score is -0.267 ± 0.38.
In the case of VENRMVVLRSSIAIWVSRTV it was 0.955 ± 0.34.
In the case of VFAWRN it was -0.347 ± 1.1; in that of VFCGFDIVFCKRAFGSKIYL, -0.632 ± 1.1; in that of VFCYRSDMSGTSSGGGYQM, -0.178 ± 0.29.
With VFDGVSSGTCHLCAAWSWDG the figure was 1.56 ± 0.14; with VFDVHIYRPSVP, 5.96 ± 0.069.
As for VFEFVVDNHLNIRLTRGGFM, the amyloid nucleation score came out at 4.93 ± 0.084.
In the case of VFFISEIRPKFFLTLPRTAL it was 4.87 ± 0.096.
With VFFWLQNFEVLWPMEARVWE the figure was 4.14 ± 0.096; with VFINRFHRVMLRAVIRQGVV, 0.31 ± 0.5.
With VFKLCTSPFSCLIGRMGGTD the figure was 9.172 ± 0.063; with VFLKQVEPEGGQYETFLVVV, -0.19 ± 1.1; with VFLYNIGFK, 0.691 ± 0.38.
As to VFNWLNRGEESWDVVLVV, the amyloid nucleation score result is “inactive”.
In the case of VFSFRGLFGFIPMVPYWYAI it was “inactive”; in that of VFTSYFLLFICLGYCEFYGD, 4.299 ± 0.042.
Consider VFWSVYFDACLVFMTVSYLL, for which the amyloid nucleation score entry was “inactive”.
With VGAYPEEKR the figure was -0.013 ± 0.38; with VGGGTECVLSRQEFGCWLLW, 0.649 ± 0.48.
In the case of VGIRCLRFFNMIVLEG it was -0.059 ± 0.55; in that of VGIYDYVLRSC, 0.115 ± 0.33.
For the substance VGLGVRVEVLTMSFTILQSV, the amyloid nucleation score was 3.36 ± 0.078.
In the case of VGLISERLVSMSTVA it was 0.4 ± 0.56; in that of VGPVMINSSSVTQCTGWNRT, 3.8 ± 0.091; in that of VGPVNQRWGVTISLAPEVCF, 0.553 ± 0.57.
With VGRGMHTSYFVGTHTWLSVC the figure was 4.83 ± 0.11; with VGSKWLNGSRGKRLELRIGR, 4.03 ± 0.12; with VGTGLIIA, 1.18 ± 0.47.
Take VGTLNGFRRFGRSGKFNILE: the amyloid nucleation score was -0.195 ± 0.27.
With VHHLDNYLQAN the figure was -0.659 ± 0.34.
In the case of VHLALTRCM it was 0.844 ± 0.32; in that of VHPGTR, 4.08 ± 0.065.
With VHRSSLASNGSLES the figure was -0.398 ± 0.45; with VHTMY, -0.299 ± 1.1; with VHVCVVACFACFSANSEKGG, 10.79 ± 0.042.
In turn, VHWSWIAVAGHKDRAPGVRR yielded an amyloid nucleation score of 1.21 ± 0.3.
In the case of VHYQLKSIRMDSM it was 0.484 ± 0.19; in that of VICEIMYNKMCDTSLRSSLS, 0.329 ± 0.65; in that of VICRGVHSHSLGWGSCITCS, -0.98 ± 0.48.
With VIFAHGVFGECWFVYSLVFS the figure was -0.784 ± 0.76; with VIFCVLLVNNLDWRFWPSSK, 4.928 ± 0.037; with VIISCTYVNY, -0.002 ± 0.4.
In the case of VIRRGMFIQPAFAKMLSAWF it was -0.231 ± 1; in that of VIRTPILGYWSCIGTFNVFW, 8.167 ± 0.044.
Regarding VIVSMVSE, the amyloid nucleation score entry is “inactive”.
With VIYKSLHRLVISRVNVFFPV the figure was -0.263 ± 0.65; with VKFFSSVLSNDGFRSLGVCL, 0.13 ± 1.1; with VKMFVF, -0.221 ± 0.79.
In the case of VKPHFRLGGNQNRPIPCSVS it was 0.318 ± 0.45.
With VKSMFLYTASSADPERGVYG the figure was -1.27 ± 1.1; with VKVVVNSSDNCVSIDWSYGR, 2.14 ± 0.17.
As for VKWISMCSILSYRRG, the amyloid nucleation score is -1.08 ± 0.78.
With VKWTVHYNAVAKRIRLMIVY the figure was 0.437 ± 0.8.
In the case of VLAAT it was -0.815 ± 0.55.
VLDINIFMISYCFHMHYDQV came in with an amyloid nucleation score of 5.49 ± 0.091.
Turning to VLDSWRR, the amyloid nucleation score is -0.963 ± 1.1.
In the case of VLFCT it was -1.29 ± 0.61; in that of VLFNYKLITGSMFCTRHTRP, 2.08 ± 0.11; in that of VLFVTVPLSMVIMVSQT, -0.277 ± 1.
With VLGKFVEPGMAGLSVTPFRM the figure was 0.829 ± 0.57; with VLGLSR, 0.584 ± 0.51; with VLGMYVFDRG, 0.543 ± 0.46.
In the case of VLGNSLELVGNRLDSI it was 4.11 ± 0.066.
Turning to VLGVLQFVAFWNVVMWISPL, the amyloid nucleation score was -0.659 ± 0.76.
With VLICFVSLRLKVGTLIPTTT the figure was -0.37 ± 0.76; with VLISSKYLIQSVDYILLNGP, -0.217 ± 0.29; with VLKQLLFFS, 4.357 ± 0.039.
In the case of VLLGPSSYRLTYTMGRRRDG it was 0.685 ± 0.66; in that of VLNERYSTLVVAPTRNASGL, “inactive”.
In the case of VLPEWSLF it was “inactive”; in that of VLPRGD, 0.125 ± 0.4.
VLPRYN displayed an amyloid nucleation score of 0.471 ± 0.62.
In the case of VLQDMYYKSVKKLQARSKDF it was “inactive”.
In the case of VLQRCRTAVKPYQHNNCLIM it was 2.26 ± 0.11; in that of VLSEYGDTNYKIQGRATCGK, 0.928 ± 0.6.
Take VLSNSEYVFTNR: the amyloid nucleation score is -0.5 ± 0.28.
In the case of VLSRFLASKRNCPVPDSLG it was 0.093 ± 0.29.
VLTNKLQVTVCLLC gave an amyloid nucleation score of 8.448 ± 0.046.
With VMALSIMTMGTSVGFRDNGG the figure was 4.38 ± 0.071; with VMCEEGLALRRCTGWLMFTG, 1.11 ± 0.28.
In the case of VMIMVEVNPWGRCGRRRERS it was 9.613 ± 0.052; in that of VMIVFLDAFFGNLRANVVWY, -0.846 ± 0.49.
In the case of VMLNWKMVYRTRDFNLQSYD it was 1.85 ± 0.15.
Consider VMMIQTVQFRLTSKSSGMSR, for which the amyloid nucleation score was determined as 5.259 ± 0.043.
In the case of VMRNKILF it was -0.341 ± 0.79.
With VMRVT the figure was 5.22 ± 0.081; with VMSFTASA, 0.607 ± 0.51.
With VMVFVCVAYEYEFSPIRGPE, the amyloid nucleation score result is “inactive”.
With VMWKEFLPGILCGCCKLGFS the figure was -0.481 ± 0.33.
With VMWRTRGTACSLIVRWVGMG the figure was 0.822 ± 0.25; with VNAVSKGTCLLIWFRDFVAY, -0.113 ± 1.1.
With VNCCDFVVC the figure was -0.063 ± 0.49.
